Source: patent US20250076311A1 (Chugai, published 2025)
Values belong to the binder of their own block, whether it stands above or below them.

Columns and labels:
[1] = molecular target: T1, cynomolgus monkey FcγRIIa2 extracellular domain, His-tagged (cynomolgus monkey); assay: SPR (Biacore), 25C, antibody captured, FcgR as analyte
T1 construct: also called cyno FcgRIIa2
T1 chain: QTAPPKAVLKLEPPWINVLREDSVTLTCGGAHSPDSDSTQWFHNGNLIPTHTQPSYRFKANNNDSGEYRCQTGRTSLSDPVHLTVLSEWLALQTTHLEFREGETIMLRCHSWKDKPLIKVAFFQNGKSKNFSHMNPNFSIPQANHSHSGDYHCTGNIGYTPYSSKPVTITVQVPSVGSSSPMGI
Procedure: (§1) The kinetic analysis of interactions between these antibodies and FcγR was carried out using BIACORE® T200 or BIACORE® 4000 (GE Healthcare). HBS-EP+ (GE Healthcare) was used as the running buffer, and the measurement temperature was set to 25° C. […] After the measurement, the antibody captured on the chip was washed off by allowing reaction with 10 mM glycine-HCl, pH1.5 and 25 mM NaOH so that the chip was regenerated and used repeatedly. The sensorgrams obtained as measurement results were analyzed by the 1:1 Langmuir binding model using the BIACORE® Evaluation Software to calculate the binding rate constant ka (L/mol/s) and dissociation rate constant kd (1/s), and the dissociation constant KD (mol/L) was calculated from these values. […] Regarding such interactions, KD values were calculated using the following 1:1 binding model described in BIACORE® T100 Software Handbook BR1006-48 Edition AE.

[2] = molecular target: T2, human FcγRIIaR extracellular domain, His-tagged (human, UniProt P12318 34-217); assay: as above
T2 construct: also called human FcgRIIaR; FcγRIIa type R
T2 chain: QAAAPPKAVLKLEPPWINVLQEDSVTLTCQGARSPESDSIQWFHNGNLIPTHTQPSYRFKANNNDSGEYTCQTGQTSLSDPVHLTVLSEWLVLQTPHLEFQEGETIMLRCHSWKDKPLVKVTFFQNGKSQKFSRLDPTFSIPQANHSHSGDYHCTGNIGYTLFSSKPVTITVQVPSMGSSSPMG
Procedure: as §1

[3] = molecular target: T3, human FcγRIIIaV extracellular domain, His-tagged (human, UniProt P08637 17-208); assay: as above
T3 construct: also called human FcgRIIIaV
Procedure: as §1
T3 sequence (P08637 17-208 F176V): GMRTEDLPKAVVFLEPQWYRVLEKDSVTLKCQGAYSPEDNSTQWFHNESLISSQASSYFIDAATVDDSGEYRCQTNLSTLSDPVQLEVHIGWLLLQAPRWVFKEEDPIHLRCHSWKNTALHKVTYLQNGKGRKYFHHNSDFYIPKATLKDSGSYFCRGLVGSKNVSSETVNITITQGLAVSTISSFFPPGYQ

[4] = molecular target: T4, cynomolgus monkey FcγRIIIaS extracellular domain, His-tagged (cynomolgus monkey, UniProt Q8SPW2 21-206 at identity 1.00)); assay: SPR (Biacore), 25C, KD of SG1 / KD of variant
T4 construct: also called cyno FcgRIIIaS
T4 chain: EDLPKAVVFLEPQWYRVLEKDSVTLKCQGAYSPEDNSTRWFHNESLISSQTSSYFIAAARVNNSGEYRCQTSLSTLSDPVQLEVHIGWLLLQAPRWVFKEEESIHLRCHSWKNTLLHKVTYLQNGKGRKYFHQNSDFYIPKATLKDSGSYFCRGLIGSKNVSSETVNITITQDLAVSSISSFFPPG

[5] = molecular target: T5, human FcγRIIaH extracellular domain, His-tagged (human, UniProt P12318 34-217); assay: SPR (Biacore), 25C, KD of SG1 / KD of variant
T5 construct: also called human FcgRIIaH; FcγRIIa type H
T5 sequence: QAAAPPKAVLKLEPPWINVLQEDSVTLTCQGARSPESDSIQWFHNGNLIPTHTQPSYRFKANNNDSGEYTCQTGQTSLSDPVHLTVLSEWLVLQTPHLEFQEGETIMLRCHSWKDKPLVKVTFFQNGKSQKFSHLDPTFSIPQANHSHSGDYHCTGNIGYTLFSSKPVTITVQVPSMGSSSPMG

[6] = molecular target: T6, human FcγRIIb extracellular domain, His-tagged (human, UniProt P31994 43-217); assay: SPR (Biacore), 25C, KD of SG1 / KD of variant
T6 construct: also called human FcgRIIb
T6 sequence: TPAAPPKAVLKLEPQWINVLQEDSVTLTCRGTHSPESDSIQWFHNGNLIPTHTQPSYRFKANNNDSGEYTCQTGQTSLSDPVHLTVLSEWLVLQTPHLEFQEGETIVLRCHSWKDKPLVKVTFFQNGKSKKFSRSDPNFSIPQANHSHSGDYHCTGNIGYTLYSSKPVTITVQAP

[7] = molecular target: T1, cynomolgus monkey FcγRIIa2 …; assay: SPR (Biacore), 25C, KD of SG1 / KD of variant
[8] = molecular target: T2, human FcγRIIaR extracellular domain, …; assay: SPR (Biacore), 25C, KD of SG1 / KD of variant
[9] = molecular target: T7, cynomolgus monkey FcγRIIb extracellular domain, His-tagged (cynomolgus monkey); assay: SPR (Biacore), 25C, KD of SG1 / KD of variant
T7 construct: also called cyno FcgRIIb
T7 chain: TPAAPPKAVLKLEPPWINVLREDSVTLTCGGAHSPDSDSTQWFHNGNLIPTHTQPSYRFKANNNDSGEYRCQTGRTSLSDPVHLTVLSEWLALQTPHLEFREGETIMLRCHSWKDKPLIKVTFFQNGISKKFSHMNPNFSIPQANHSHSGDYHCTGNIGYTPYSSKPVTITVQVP

[10] = molecular target: T8, cynomolgus monkey FcγRIIa3 extracellular domain, His-tagged (cynomolgus monkey); assay: SPR (Biacore), 25C, KD of SG1 / KD of variant
T8 construct: also called cyno FcgRIIa3
T8 chain: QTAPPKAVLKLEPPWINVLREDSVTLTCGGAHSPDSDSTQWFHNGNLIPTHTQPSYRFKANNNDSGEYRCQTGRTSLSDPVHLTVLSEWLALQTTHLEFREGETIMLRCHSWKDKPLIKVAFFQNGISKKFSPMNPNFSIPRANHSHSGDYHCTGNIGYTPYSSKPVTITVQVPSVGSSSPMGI

[11] = molecular target: T9, cynomolgus monkey FcγRIIa1 extracellular domain, His-tagged (cynomolgus monkey); assay: SPR (Biacore), 25C, KD of SG1 / KD of variant
T9 construct: also called cyno FcgRIIa1
T9 chain: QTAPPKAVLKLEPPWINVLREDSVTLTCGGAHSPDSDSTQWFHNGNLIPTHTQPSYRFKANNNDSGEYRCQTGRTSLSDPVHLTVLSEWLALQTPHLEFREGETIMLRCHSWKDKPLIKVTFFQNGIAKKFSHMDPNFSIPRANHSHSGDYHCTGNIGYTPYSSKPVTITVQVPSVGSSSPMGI

[12] = molecular target: T3, human FcγRIIIaV extracellular domain, …; assay: SPR (Biacore), 25C, KD of SG1 / KD of variant
[13] = molecular target: T4, cynomolgus monkey FcγRIIIaS …; assay: SPR (Biacore), 25C, FcgR bound per antibody captured
Procedure: (§2) In the next step, cross-reactivity of these substitutions to cynoFcγRs was evaluated.
(§3) The value of the amount of FcγR binding was obtained by dividing the amount of FcγR bound by the amount of each antibody captured.

[14] = molecular target: T1, cynomolgus monkey FcγRIIa2 …; assay: as above
Procedure: as §2, §3

[15] = molecular target: T7, cynomolgus monkey FcγRIIb extracellular …; assay: as above
Procedure: as §2, §3

[16] = molecular target: T8, cynomolgus monkey FcγRIIa3 …; assay: as above
Procedure: as §2, §3

[17] = molecular target: T9, cynomolgus monkey FcγRIIa1 …; assay: as above
Procedure: as §2, §3

[18] = molecular target: T10, human FcγRIIIaV extracellular domain, His-tagged (human, UniProt P08637 17-208); assay: SPR (BIACORE), antibody captured on chip, FcγR as analyte, 25 C; KD of SG1 divided by KD of the variant
T10 construct: also called human FcγRIIIa (V158 allotype); FcgRIIIaV; not shown: His-tag added to the C-terminus
Procedure: as §1
T10 sequence (P08637 17-208 F176V): as the sequence (P08637 17-208 F176V) above

[19] = molecular target: T11, cynomolgus monkey FcγRIIa1 extracellular domain with C-terminal His-tag (cynomolgus monkey); assay: SPR (Biacore), KD of SG1 divided by KD of variant
T11 construct: also called cyno FcgRIIa1; cynoFcγRIIa1
T11 chain: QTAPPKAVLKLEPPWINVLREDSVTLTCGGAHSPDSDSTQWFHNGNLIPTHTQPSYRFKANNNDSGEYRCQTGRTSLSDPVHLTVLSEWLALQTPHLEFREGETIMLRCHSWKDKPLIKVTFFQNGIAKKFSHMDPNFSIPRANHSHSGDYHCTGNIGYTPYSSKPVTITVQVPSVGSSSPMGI

Kd [1]: 52 µM | Kd [2]: 14 µM | Kd [3]: 1.2 µM | KD fold (SG1 = 1) [4]: 1 | KD fold (SG1 = 1) [5]: 1 | KD fold (SG1 = 1) [6]: 1 | KD fold (SG1 = 1) [7]: 1 | KD fold (SG1 = 1) [8]: 1 | KD fold (SG1 = 1) [9]: 1 | KD fold (SG1 = 1) [10]: 1 | KD fold (SG1 = 1) [11]: 1 | KD fold (SG1 = 1) [12]: 1 | Binding to cynoFcgRs (SG1 = 100) [13]: 100 | Binding to cynoFcgRs (SG1 = 100) [14]: 100 | Binding to cynoFcgRs (SG1 = 100) [15]: 100 | Binding to cynoFcgRs (SG1 = 100) [16]: 100 | Binding to cynoFcgRs (SG1 = 100) [17]: 100
B1: MS1032LO06-SG1 (antibody, human IgG1, kappa)
heavy: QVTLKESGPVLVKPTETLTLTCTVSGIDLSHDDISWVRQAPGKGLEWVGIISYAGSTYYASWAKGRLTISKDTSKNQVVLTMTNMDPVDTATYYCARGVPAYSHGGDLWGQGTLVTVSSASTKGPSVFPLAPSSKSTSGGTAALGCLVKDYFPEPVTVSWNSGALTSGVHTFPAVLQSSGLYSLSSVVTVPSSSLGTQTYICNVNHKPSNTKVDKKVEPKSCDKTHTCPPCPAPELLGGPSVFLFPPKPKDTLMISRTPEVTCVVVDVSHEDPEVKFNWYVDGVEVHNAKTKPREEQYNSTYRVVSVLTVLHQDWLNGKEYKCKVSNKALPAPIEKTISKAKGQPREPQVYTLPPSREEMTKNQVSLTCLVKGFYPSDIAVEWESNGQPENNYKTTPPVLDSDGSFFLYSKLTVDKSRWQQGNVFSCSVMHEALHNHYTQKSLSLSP
light: DIVMTQSPATLSLSPGERATLSCTSSQSVYHANWLSWFQQKPGQPPKLLIYWASTLAYGVPSRFSGSGSGTDFTLTISSLQPEDAATYYCAGGYGGGRYAFGQGTKVEIKRTVAAPSVFIFPPSDEQLKSGTASVVCLLNNFYPREAKVQWKVDNALQSGNSQESVTEQDSKDSTYSLSSTLTLSKADYEKHKVYACEVTHQGLSSPVTKSFNRGEC
notes: Heavy constant region SG1, light constant region SK1; also called M103205H795-SG1

KD fold for humanFcgRs (SG1 = 1) [18]: 0.09 fold
B2: M103205H795-MY318/M103202L889-SK1 (antibody, human IgG1, kappa, name in EU numbering)
heavy: QVTLKESGPVLVKPTETLTLTCTVSGIDLSHDDISWVRQAPGKGLEWVGIISYAGSTYYASWAKGRLTISKDTSKNQVVLTMTNMDPVDTATYYCARGVPAYSHGGDLWGQGTLVTVSSASTKGPSVFPLAPSSKSTSGGTAALGCLVKDYFPEPVTVSWNSGALTSGVHTFPAVLQSSGLYSLSSVVTVPSSSLGTQTYICNVNHKPSNTKVDKKVEPKSCDKTHTCPPCPAPELLLGPSVFLFPPKPKDTLMISRTPEVTCVVVDVSEEDPEVKFNWYVDGVEVHNAKTKPREEQYNSTYRVVSVLTVLHQDWLNGKEYKCKVSNTALPKPIEKTISKAKGQPREPQVYTLPPSREEMTKNQVSLTCLVKGFYPSDIAVEWESNGQPENNYKTTPMVLDSDGSFFLYSKLTVDKSRWQQGNVFSCSVMHEALHNHYTQKSLSLSP
light: DIVMTQSPATLSLSPGERATLSCTSSQSVYHANWLSWFQQKPGQPPKLLIYWASTLAYGVPSRFSGSGSGTDFTLTISSLQPEDAATYYCAGGYGGGRYAFGQGTKVEIKRTVAAPSVFIFPPSDEQLKSGTASVVCLLNNFYPREAKVQWKVDNALQSGNSQESVTEQDSKDSTYSLSSTLTLSKADYEKHKVYACEVTHQGLSSPVTKSFNRGEC
notes: expressed with M103202L889-SK1 as light chain

KD fold (SG1 = 1) [19]: 1.9 fold
B3: M103205H795-MY388 (second row so labelled: G236T/S239I/H268D/A330K) / M103202L889-SK1 (antibody, human IgG1, kappa, name in EU numbering)
heavy: QVTLKESGPVLVKPTETLTLTCTVSGIDLSHDDISWVRQAPGKGLEWVGIISYAGSTYYASWAKGRLTISKDTSKNQVVLTMTNMDPVDTATYYCARGVPAYSHGGDLWGQGTLVTVSSASTKGPSVFPLAPSSKSTSGGTAALGCLVKDYFPEPVTVSWNSGALTSGVHTFPAVLQSSGLYSLSSVVTVPSSSLGTQTYICNVNHKPSNTKVDKKVEPKSCDKTHTCPPCPAPELLTGPIVFLFPPKPKDTLMISRTPEVTCVVVDVSDEDPEVKFNWYVDGVEVHNAKTKPREEQYNSTYRVVSVLTVLHQDWLNGKEYKCKVSNKALPKPIEKTISKAKGQPREPQVYTLPPSREEMTKNQVSLTCLVKGFYPSDIAVEWESNGQPENNYKTTPPVLDSDGSFFLYSKLTVDKSRWQQGNVFSCSVMHEALHNHYTQKSLSLSP
light: DIVMTQSPATLSLSPGERATLSCTSSQSVYHANWLSWFQQKPGQPPKLLIYWASTLAYGVPSRFSGSGSGTDFTLTISSLQPEDAATYYCAGGYGGGRYAFGQGTKVEIKRTVAAPSVFIFPPSDEQLKSGTASVVCLLNNFYPREAKVQWKVDNALQSGNSQESVTEQDSKDSTYSLSSTLTLSKADYEKHKVYACEVTHQGLSSPVTKSFNRGEC
notes: The label MY388 is printed for two different variants; also called MY388 (second of two rows with this label)
